Laboratory results published in the supplement of paper PMC9170038.

Test system: MS2 coat protein
Test: apparent KD of MS2 coat protein; designed switch direction (-1 OFF switch, 1 ON switch): -1; higher = weaker reporter binding
In short: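 Transcription of designed RNA switches on Illumina chips was done by stalled E. coli RNA polymerase. SNAP-549-labelled MS2 coat protein was then titrated in doubling steps from 0.7 or 1.5 nM to 3 µM, with steps of 0.8–1.5 h at the lowest and 10–20 min at the highest concentration. The per-design median over clusters of curve-fitted normalised fluorescence is reported as apparent KD.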

[1] = Eterna round: R95, input ligand: microRNA oligo, concentration not stated
[2] = Eterna round: R95, input ligand: FMN 200 uM
[3] = Eterna round: R95, input ligand: none
[4] = input ligand: microRNA oligo, concentration not stated

| Sequence | apparent KD of MS2 coat protein [1] | apparent KD of MS2 coat protein [2] | apparent KD of MS2 coat protein [3] | apparent KD of MS2 coat protein (input ligand: FMN 200 uM) | apparent KD of MS2 coat protein [4] | apparent KD of MS2 coat protein (input ligand: none) |
| --- | --- | --- | --- | --- | --- | --- |
| UUUUUACGAGGAUAUCGUUUUUUUCACAUGAGGAUCACCCAUGUUGUUUAUGUUUCGUUGCGAGAAGGCGUUUGUU [JR_E5_Sub064] (puzzle: Exclusion 5) | 24.3 nM |  |  |  |  |  |
| GGUCAAGAGCAGAUCCGCGCUGCUAUUGACCGCUCAUUUACAUGAGGAUCACCCAUGUUUUUUGCUCGUCUUAUUAC [Biinedmaa] (puzzle: Sensor v3, turn-off variant 2) | 77.7 nM | 19.4 nM | 18.7 nM |  |  |  |
| UUUGUCUGUGUGAGGAUAUACUUGUUUGGGUUUUUGUAGAAGGCACAUGAGGAUCACCCAUGUAUUUUGUUGUG [JR_BME4_Sub017] (Eterna round: R96, puzzle: Brourd's mod of Exclusion 4) |  |  |  | 86.5 nM | 47.7 nM | 55.9 nM |
| GGUUCGUGAGGAUAUGUGGCUUCGAUCGUGCGAAGAAGGCUACAGAAGGCACAUGAGGAUCACCCAUGUUCGUC [salish99_ex4_r4_228] (Eterna round: R97, puzzle: Exclusion 4) |  |  |  | 241 nM |  | 62.1 nM |
| AGCUGUGGCCGAGGAUAUCUGUUCCAAAUAACCGACGUAUAGUCGGACAUGAGGAUCACCCAUGUAGAGAAGGCGGUCUCAGCA [Eli eng2 - 101] (Eterna round: R96, puzzle: Exclusion NG 2) |  |  |  | 136 nM | 38 nM | 63.9 nM |
| UAUUUAUAGCAAGGAUAUGAUUAUUAUUAUUUAUCAGAAGGUGCACAUGAGGAUCACCCAUGUUUUAUAUAUAAUAAUUUAAUU [Title] (Eterna round: R96, puzzle: Exclusion NG 1) |  |  |  |  | 82.5 nM |  |
| ACUUGCUAUUUGCUCGUCUUAUUUUUGUUUAUUUACUAUACAUGAGGAUCACCCAUGUUAUAUUUAAGGGUGUGAUA [JR_SV3TOV2_Sub074] (puzzle: Sensor v3, turn-off variant 2) | 334 nM | 270 nM | 259 nM |  |  |  |
| GUGAUCUAUCAUGUAAUCAACAUGAGGAUCACCCAUGUAGACAAGUUUUUUGCUCGUCUGAUAAUAAGAUAGAUCAC [Antenna 16 - Jieux - Sensor, turn-off variant 1] (Eterna round: R97, puzzle: Sensor, turn-off variant 1) |  |  |  | 13.8 nM |  | 12.3 nM |
| AAAUAGAAUGAGGAUAUCGAAUUAUAUAUAGUACGAGAAGGCAUUACAUGAGGAUCACCCAUGUUUUGUUGGGA [JR_Ex6_Sub001] (Eterna round: R97, puzzle: Exclusion 6) |  |  |  | 73 nM |  | 27.6 nM |
| GCUGGUCGAGGAUAUACAUGAGGAUCACCCAUGUGAUUAGCAGUCCUCGGACUGCAAUGUAGAAGGCGACCAGC [E3/2-A1] (Eterna round: R97, puzzle: Exclusion 3) |  |  |  | 620 nM |  | 439 nM |
| GGCGGUGCAGGAUAUUGAAAACUACACAUGAGGAUCACCCAUGUUCCUCACCGGUACAAGCAAGAAGGGCGGUGCA [Erxegetiis] (puzzle: Exclusion 5) | 19.4 nM | 18.9 nM | 18.3 nM |  |  |  |
| AAUAUGUUAGGAUAUCUCAGCUGCCCGUAAACAGGCUAGCGAGAGAAGGGACAUGAGGAUCACCCAUGUCAUCC [Eternabot (Original) Solution 2] (Eterna round: R97, puzzle: Exclusion 4) |  |  |  | 17.1 nM |  | 15.6 nM |
| AGAUGUAGAAACCGAUCCUACAUGAGGAUCACCCAUGUAGCAAGACGUGCACGCGAAGCUCGUCAGACUACCAGAAG [salish99_TOv1_r3_082] (puzzle: Sensor v3, turn-off variant 1) | 188 nM | 270 nM | 352 nM |  |  |  |
| AGAUCACAUGAGGAUCACCCAUGUCAGGAUAUCAUCAUUGAAGCUUCGGCUUCAAUGAUGAGAAGGGACAUAAU [E1/2-B1] (Eterna round: R97, puzzle: Exclusion 1) |  |  |  | 297 nM |  | 598 nM |
| AAAACUCACGUAGGAUAUCAUUCCUUAAGGUAGUGAGAAGGACGUGACUACAUGUCCUUGAACAUGAGGAUCACCCAUGUAGGC [Cerama] (Eterna round: R96, puzzle: Exclusion NG 1) |  |  |  |  | 36.5 nM |  |
| GGGAAGAACCAACAAGUUAACAUGAGGAUCACCCAUGUUGACUUCAUGUGCACGCAAAGCGUGCAAGCUCGUCUUAU [AK-miRNA-r3-15] (Eterna round: R97, puzzle: Sensor, turn-off variant 1) |  |  |  | 17.9 nM |  | 17.2 nM |
| CUAUUCCGAGGAUAUACAUGAGGAUCACCCAUGUCGGGCCUCCGCGUUUAGCGCCUCAGUAGAAGGCGGGUUUC [JL Riri mod 2] (puzzle: Exclusion 3) | 17.2 nM |  |  |  |  |  |

| Sequence | apparent KD of MS2 coat protein [1] | apparent KD of MS2 coat protein [2] | apparent KD of MS2 coat protein [3] | apparent KD of MS2 coat protein (input ligand: FMN 200 uM) | apparent KD of MS2 coat protein [4] | apparent KD of MS2 coat protein (input ligand: none) |
| --- | --- | --- | --- | --- | --- | --- |
| GGUUAUUGCAAGGAUAUGCUUUUUUUUUAUAUUGCAGAAGGUGCAACAUGAGGAUCACCCAUGUUGGAGGGUUU [JR_E6_Sub022] (puzzle: Exclusion 6) | 26 nM |  |  |  |  |  |
| GACUAGGCAGGAUAUACAUGAGGAUCACCCAUGUGUCUGCGUUAAGCACGUGAAGACGGUAGAAGGGCCUUCAC [ChP 13.04.2015 #17] (puzzle: Exclusion 3) | 10.3 nM |  |  |  |  |  |
| AAGGGUACUUUCAGAACGACAUGAGGAUCACCCAUGUAGACUGAGGAUAUCUACUUCUAAGGACGGGAGAAGGCAGUGUAAUGU [Ex NG3 #72] (Eterna round: R96, puzzle: Exclusion NG 3) |  |  |  | 11.4 nM | 10.7 nM | 13.5 nM |
| AUUGAUAGCACAGGAUAUUGAGAUUUGAAUUGACAAGAAGGGUGUACAUGAGGAUCACCCAUGUAAUGGUUGAGUGGUUGAUUA [JR_ExcNG1_Sub003] (Eterna round: R96, puzzle: Exclusion NG 1) |  |  |  | 953 nM | 829 nM | 1140 nM |
| GCCGAUUAAGUGAGGAUAUACCUAUGGAUACAUAGGUAGAAGGCACAUGAGGAUCACCCAUGUUCCUCAUCGGC [Fiskers BMX 4 - 11] (Eterna round: R96, puzzle: Brourd's mod of Exclusion 4) |  |  |  | 155 nM | 16.5 nM | 21.3 nM |
| GAUCAACAUGAGGAUCACCCAUGUGAGGAUAUGUAUCAUAGAUCUUCGGAUCUAUGAUACAGAAGGCAUGUAGG [Ex1-3: 100] (puzzle: Exclusion 1) | 74.2 nM |  |  |  |  |  |
| AAUUAGCAAGCAAGAUCCCACAUGAGGAUCACCCAUGUGCUCGUCUUAUAAGGUACUGUGACGAUAGUCACGGUACC [Mat - Sensor, turn-off var - Eli Mod - D49] (Eterna round: R97, puzzle: Sensor, turn-off variant 1) |  |  |  | 42.9 nM |  | 49.4 nM |
| CGUUCGCGAGGAUAUGCAUUCGAGUCCACUACGUGUCUGGGACUUGAGGAUCACCCAAGUAGAAGGCGCCUCAA [salish99_ex2_r4_651] (Eterna round: R97, puzzle: Exclusion 2) |  |  |  | 171 nM |  | 230 nM |
| AAAUCGGUAGAGGAUAUUGUACAGGAAACGGUGCAAGAAGGUUACACAUGAGGAUCACCCAUGUUAAAUAGCGA [EX6 #53] (Eterna round: R97, puzzle: Exclusion 6) |  |  |  | 26.9 nM |  | 18.1 nM |
| AGUAACUAUCACGAAAGUGAUAGUUACACAAGCAGUGAAACAUGAGGAUCACCCAUGUCCUCAUAUGCUCGUCUUAU [Sensor 3 - 30] (puzzle: Sensor v3, turn-off variant 2) | 1280 nM | 119 nM | 114 nM |  |  |  |
| GAAAAGCUAGGAUAUACGAAAAAAAAGGGUAGAAAAAAAACACAUGAGGAUCACCCAUGUAGAAGGAGCAAAAG [salish99_ex2_r3_093] (puzzle: Exclusion 2) | 51 nM | 102 nM | 48.2 nM |  |  |  |
| UGAGUGCUGCGAGGAUAUACAUGAGGAUCACCCAUGUUAUCGUGUGAGGCUUUGCCUCACACGAAGUAGAAGGCGCAGUACUCU [JL ENG2 1.11] (Eterna round: R96, puzzle: Exclusion NG 2) |  |  |  | 9.84 nM | 10.2 nM | 14.2 nM |
| UCUUAUUGCAAGGAUAUGCUUUUUAUUUCUUUUGCAGAAGGUGCAACAUGAGGAUCACCCAUGUUUCCGGGCAU [JR_E6_Sub035] (Eterna round: R96, puzzle: Exclusion 6) |  |  |  | 34.4 nM | 16.4 nM | 21.5 nM |
| AAAACGGACCGAGGAUAUACACGAUAUCUUUGCGUAGAAGGCGGACCGGCGACUUGAGGAUCACCCAAGUGUCCUCUUUUGCGG [Mutated MS2 EX1.4] (Eterna round: R96, puzzle: Exclusion NG 1) |  |  |  | 323 nM | 110 nM | 175 nM |
| GCUGCAUCAGGAUAUAUACGGUAUCACAUGAGGAUCACCCAUGUUCGUGUGGAACUGAACGUAGAAGGGAUUAGAU [Aramaa] (puzzle: Exclusion 5) | 28.3 nM | 31.1 nM | 24.5 nM |  |  |  |
| GUAAAACAUGUAGGAUAUGCGUGGCGAAGCUAUGCAGAAGGACAUGAGGAUCACCCAUGUUAAAGCGUCUGCGUACAGAUGCAA [Mat - Exclusion NG 1 - Mod of JL - D94] (Eterna round: R96, puzzle: Exclusion NG 1) |  |  |  | 279 nM | 19.8 nM | 29.2 nM |
| GGCCGAGAACAGCUCCACGCUACCCUCGGCCGCUCAUUUACAUGAGGAUCACCCAUGUUUUUUGCUUGUCUUGUUUC [Xeisrarabi] (puzzle: Sensor v3, turn-off variant 2) | 94.1 nM | 22.1 nM | 24.1 nM |  |  |  |
